In the supplement of paper PMC10567573:

B1: HNF4A (parent)
chain: RFSRQCVVDKDKRNQCRYCRLKKC
B2: C10orf62 (parent)
chain: MLWVQRKRRRKETSECPSDKDKSP

Variants of: B1
Test: protein stability index of a GFP-peptide fusion (GPS, HEK-293T) (PSI 1-6); higher = more stable
Details: c terminus: a fixed tail appended
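Also: lentivirally expressed fusions sorted by FACS into six bins by GFP to DsRed ratio, PSI derived from sequencing read proportions per bin multiplied by bin number.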

Protein stability index of substitutions, site by site:
R17: G 3.16; A 2.77; Q 3.42; V 2.21; I 2.9; K 2.54; E 3.78; D 3.29; C 2.29; S 2.4; M 2.79; L 1.84; P 2.9; W 2.42; Y 2.21; F 2.57; N 3.45; H 2.83; T 2.69
R13: C 3.06; L 2.22; F 2.56; E 2.02; S 2.65; T 2.99; Y 2.76; K 2.4; W 1.93; G 2.21; P 1.84; N 3.03; A 2.11; Q 2.83; H 2.98; D 3.2; V 2.7; I 2.38; M 3.02
Y18: R 3.36; A 2.2; E 3.41; P 3; C 3.61; H 3.64; S 3.69; G 3.04; N 3.78; I 3.54; L 2.19; F 2.63; T 3.2; K 3.73; M 3.13; Q 3.54
C24: F 2.55; Q 2.5; S 2.5; T 3.08; G 2.41; A 3.01; H 2.77; V 2.34; I 2.93; R 2.42; K 2.62; N 2.89; M 3.33; L 2.39; W 1.81; Y 2.77; E 1.01
C16: Q 3.38; V 3.33; W 3.37; L 2.92; K 3.1; G 2.61; T 3.56; R 4.33; H 3.9; Y 3.48; E 4.05; I 2.93; S 3.52; A 2.56; P 3.58; F 2.97; N 3.31
K22: C 2.66; R 2.9; H 1.71; V 1.83; D 2.13; Y 1.98; S 2.73; I 1.73; E 1.54; P 2.12; M 1.56; A 2.08; Q 1.79; G 2.27; F 1.8; L 2.57; T 2.13
N14: G 2.57; C 3.46; F 2.16; S 2.96; I 2.39; E 2.95; M 1.98; Y 3.62; Q 2.18; D 2.24; V 2.6; T 2.31; W 2.27; H 3.45; K 2.23; L 2.87; P 2.72; A 1.5
R20: H 1.58; Q 2.98; F 2.12; T 2.74; Y 2.28; D 3; G 3.23; I 2.42; K 2.58; S 2.72; E 2.84; N 2.62; M 2.96; A 2.96; L 2.35; C 2.24; V 2.56; P 3.15; W 1.43
D11: L 2.21; G 2.55; N 2.4; P 2.9; F 2.63; I 2.41; T 2.32; V 2.37; K 2.4; M 2.65; S 2.04; Q 2.63; Y 2.45; R 2.65; H 2.97
L21: V 2.31; N 3.33; R 4.08; C 3.73; W 2.94; E 3.08; H 3.41; Y 3.01; S 3.36; D 3.35; P 2.94; A 3.51; T 2.93; Q 3.64; G 2.94; K 4.07; F 2.86; M 3.61; I 3.22
Q15: D 2.89; S 2.79; M 2.48; L 2.78; V 2.52; A 2.47; G 2.37; C 2.8; E 2.34; I 2.33; F 2.12; P 2.21; R 2.73; K 2.85; T 2.68; Y 2.48; H 1.96
K12: A 1.51; C 2.07; V 1.99; W 2.28; D 2.13; G 2.76; F 2.25; Y 2.25; Q 2.52; P 2.76; L 1.91; T 2.85; H 2.93; S 2; I 2.54; N 2.41; M 1.97
K23: C 2.54; A 1.89; T 2.37; V 2.04; H 2.4; Y 2.24; D 1.65; M 3.12; G 2.15; I 1.68; L 1.34; F 2.67; N 1.77; E 2.04; W 2.05; P 1.74; Q 2.74; S 1.41
C19: W 2.46; M 3.08; F 2.39; I 2.03; N 3.71; R 3.37; L 3.07; S 3.65; G 3.04; T 2.99; D 4.09; A 3.07; P 3.13; V 2.95; Q 3.73; H 3.07

Variants of: B2
Test: as above
Details: c terminus: a fixed tail appended

Protein stability index of substitutions, site by site:
R6: W 3.21; S 3.42; N 3.87; Q 3.27; L 3.11; E 4.01; H 2.88; F 3.11; M 3.49; T 3.13; C 2.27; I 3.21; G 3.54; D 3.9; K 3.13; V 2.95
M1: F 2.98; N 4.55; W 2.83; Y 3.4; C 3.06; G 4; I 1.24; K 3.53; L 2.3; P 2.83; H 3.73; V 3.29; T 3.65; R 2.59; A 2.93
W3: P 5.09; F 3.25; Y 2.77; I 3.25; N 4.66; Q 3.13; A 4.3; C 4.07; H 4.31; L 3.73; T 4.73; K 4.18; M 3.46; S 4.87; D 4.99; R 4.46
L2: Y 2.41; T 3.31; A 3.92; D 4.88; H 3.52; M 2.89; I 3.21; E 4; V 2.6; F 1.33; N 3.93; P 4.59; W 2.53; C 2.87; K 2.98
V4: M 2.52; A 4.6; H 3.86; F 2.94; G 3.89; N 3.87; I 2.87; T 2.73; P 3.11; W 2.57; Y 2.71; K 3.56; E 4.56; C 3.91
Q5: F 2.67; Y 2.8; D 4.23; I 2.21; N 3.44; A 3.98; P 3.11; C 2.61; L 2.4; W 1.93; M 2.62; H 2.97; S 3.85; K 4.1
